One molecule from publication PMC6433461 can be followed below.

The experiment deals with ParB2^S68C-AlexaFluor488 (B. subtilis) (UniProt P26497).

B1: ParB2^S68C-AlexaFluor488 (natural protein)
chain: MAKGLGKGINALFNQVDLSEETVEEIKIADLRPNPYQPRKHFDDEALAELKESVLQHGILQPLIVRKCLKGYDIVAGERRFRAAKLAGLDTVPAIVRELSEALMREIALLENLQREDLSPLEEAQAYDSLLKHLDLTQEQLAKRLGKSRPHIANHLRLLTLPENIQQLIAEGTLSMGHGRTLLGLKNKNKLEPLVQKVIAEQLNVRQLEQLIQQLNQNVPRETKKKEPVKDAVLKERESYLQNYFGTTVNIKRQKKKGKIEIEFFSNEDLDRILELLSERES
modifications: Alexa Fluor 488 C5 maleimide coupled to the cysteine of S68C; approximate efficiency of 2 dyes per ParB monomer as printed
For the molecule B1, the percentage of single DNA molecules condensed by 250 nM ParB^AF alone at permissive forces, Mg2+ buffer, combined lateral MT-TIRF was 83%.
